# Test results published in patent US20230144608.
# Columns and labels:
# [1] = tested on: APAGLIVPYN (SEQ ID NO: 5)
# [2] = tested on: IVGRPRHQGV (SEQ ID NO: 7)
# [3] = tested on: PANLVAPDP (SEQ ID NO: 6)
# [4] = tested on: PVSLRSGS (SEQ ID NO: 1)
# [5] = tested on: RPLALWRS (SEQ ID NO: 3)
# [6] = tested on: RSKYLATA (SEQ ID NO: 8)
# [7] = tested on: TQKPLGLS (SEQ ID NO: 4)
# MMP-8, sequence (chain, as listed by the source): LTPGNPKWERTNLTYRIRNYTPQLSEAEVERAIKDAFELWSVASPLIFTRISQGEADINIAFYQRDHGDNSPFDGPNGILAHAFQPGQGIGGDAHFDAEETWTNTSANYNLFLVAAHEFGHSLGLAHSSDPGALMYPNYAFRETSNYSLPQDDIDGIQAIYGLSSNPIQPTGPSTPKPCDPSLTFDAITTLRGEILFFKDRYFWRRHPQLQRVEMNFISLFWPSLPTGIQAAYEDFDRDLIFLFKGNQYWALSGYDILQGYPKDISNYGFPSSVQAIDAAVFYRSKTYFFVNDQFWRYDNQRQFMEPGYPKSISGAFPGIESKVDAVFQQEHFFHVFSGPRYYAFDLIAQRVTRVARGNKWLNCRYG
# MMP-9, sequence (chain, as listed by the source): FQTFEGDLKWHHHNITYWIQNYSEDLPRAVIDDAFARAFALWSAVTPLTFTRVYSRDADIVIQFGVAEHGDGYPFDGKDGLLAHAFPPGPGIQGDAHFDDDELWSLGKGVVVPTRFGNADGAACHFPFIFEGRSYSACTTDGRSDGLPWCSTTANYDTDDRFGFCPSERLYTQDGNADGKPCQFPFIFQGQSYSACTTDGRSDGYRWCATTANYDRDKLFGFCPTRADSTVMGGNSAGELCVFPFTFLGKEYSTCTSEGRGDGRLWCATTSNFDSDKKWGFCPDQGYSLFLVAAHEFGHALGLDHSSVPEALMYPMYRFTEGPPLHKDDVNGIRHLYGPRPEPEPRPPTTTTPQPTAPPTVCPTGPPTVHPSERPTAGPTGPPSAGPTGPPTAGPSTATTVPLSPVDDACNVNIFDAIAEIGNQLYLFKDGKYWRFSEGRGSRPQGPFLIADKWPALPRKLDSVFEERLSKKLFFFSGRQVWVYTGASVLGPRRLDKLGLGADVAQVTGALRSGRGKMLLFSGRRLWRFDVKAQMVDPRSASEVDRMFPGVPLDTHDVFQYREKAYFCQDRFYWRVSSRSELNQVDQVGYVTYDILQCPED
# MMP-10, sequence (chain, as listed by the source): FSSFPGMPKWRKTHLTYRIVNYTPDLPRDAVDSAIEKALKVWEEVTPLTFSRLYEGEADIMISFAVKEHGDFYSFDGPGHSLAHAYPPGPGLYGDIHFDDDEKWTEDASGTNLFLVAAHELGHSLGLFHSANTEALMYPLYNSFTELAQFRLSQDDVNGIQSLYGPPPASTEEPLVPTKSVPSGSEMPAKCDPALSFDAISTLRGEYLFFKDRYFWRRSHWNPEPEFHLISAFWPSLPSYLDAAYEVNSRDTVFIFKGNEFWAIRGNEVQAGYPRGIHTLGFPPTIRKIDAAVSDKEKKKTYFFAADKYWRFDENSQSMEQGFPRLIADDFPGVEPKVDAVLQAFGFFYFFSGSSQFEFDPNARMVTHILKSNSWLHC
Substance,initial rate of cleavage by recombinant protease [1],initial rate of cleavage by recombinant protease [2],initial rate of cleavage by recombinant protease [3],initial rate of cleavage by recombinant protease [4],initial rate of cleavage by recombinant protease [5],initial rate of cleavage by recombinant protease [6],initial rate of cleavage by recombinant protease [7]
MMP-8,0.5 µM/h,0 µM/h,7.2 µM/h,0.1 µM/h,0.2 µM/h,0 µM/h,0.1 µM/h
MMP-10,1.6 µM/h,0 µM/h,1.8 µM/h,0 µM/h,0 µM/h,0 µM/h,0 µM/h
MMP-9,1.8 µM/h,0 µM/h,8.8 µM/h,6.5 µM/h,0.2 µM/h,0 µM/h,0.3 µM/h
